# From patent publication US12285502B2, “HER3 peptides for imaging and radiotherapy” (The General Hospital Corporation, priority 2016, dated 2025)
# Where two headings read alike, the source gives them in different places.
# What was measured:
# [1] = tested on: MDA-MB-453 breast cancer cells (moderate HER3); experiment: HER3 peptide cellular binding (streptavidin-HRP absorbance, fluorescent microscopy), MDA-MB-453; type: cell-based
# Protocol: (§1) Two cell lines, MDA-MB-453 breast cancer cells which express moderate levels of HER3 and HCC-1954 cells which express low levels of HER3, were chosen to assess the ability of the peptide to discriminate between relatively close expression levels in vitro. Cells were seeded at a density of 1×10^5 cells/well in 96 well plates (Fisher) and grown overnight for 24 h in fetal bovine serum supplemented medium. HER3 peptide or a control peptide were added at 250 nM in media and incubated for 1 h at 37° C. Cells were washed 3× with PBS and bound peptide detected by addition of streptavidin-HRP. Cells were once again washed and bound peptide detected by addition of ABTS and absorbance read at 405 nm. Visual confirmation of peptide binding was confirmed by fluorescent microscopy. MDA-MB-453 and HCC-1954 cells were fixed in 10% formalin and dried onto microscope slides overnight. Following rehydration with TBS, slides were blocked with 2% BSA in TBS for 1 h prior to addition of peptide at a concentration of 250 nM in 0.1% TBST and incubation at room temperature for 1 h. Cells were washed 3× with 0.1% TBST and neutravidin-Alexafluor488 was added to cells and incubated at room temperature for 1 h. Cells were washed, mounted with Vectorshield mounting media with DAPI (Vector Labs, Burlingame, CA) and visualized by inverted microscope (Olympus, Tokyo, Japan).
# [2] = tested on: HCC-1954 cells (low HER3); experiment: HER3 peptide cellular binding (streptavidin-HRP absorbance, fluorescent microscopy), HCC-1954; type: cell-based; settings: fixed HCC-1954 cells, 250 nM peptide
# Protocol: as §1
# [3] = mouse, in vivo, iv
# Excerpt: Following PET acquisition, tumors and relevant organs were removed from mice, weighed, and total activity for each was quantified by a Wallac gamma counter (Perkin Elmer, Waltham, MA). […] The specific activity of the labeled peptide was 296±25.9 MBq/mg.
# EGFR = EGFR (Homo sapiens, UniProt P00533); settings: 250 nM peptide, 405 nm
# Protocol: (§2) The purity and molecular weight were determined by high performance liquid chromatography and mass spectrometry. […] Following blocking with 1% non-fat dry milk, increasing concentrations of peptide were incubated with target protein for 1 h at 37° C. Wells were washed with 0.1% TBST, and bound peptide detected by addition of HRP-conjugated streptavidin (Abeam, Cambridge, UK), washing and ABTS substrate incubation for 10 minutes. Absorbance at 405 nm was read by spectrophotometer. […] Plates were washed and bound peptide once again detected by addition of streptavidin-HRP and ABTS and absorbance read at 405 nm.
# HER3 ECD = HER3 ECD (Homo sapiens, UniProt P21860); settings: peptide ELISA absorbance
# HER3 ECD, sequence (P21860 20-643 limits assumed): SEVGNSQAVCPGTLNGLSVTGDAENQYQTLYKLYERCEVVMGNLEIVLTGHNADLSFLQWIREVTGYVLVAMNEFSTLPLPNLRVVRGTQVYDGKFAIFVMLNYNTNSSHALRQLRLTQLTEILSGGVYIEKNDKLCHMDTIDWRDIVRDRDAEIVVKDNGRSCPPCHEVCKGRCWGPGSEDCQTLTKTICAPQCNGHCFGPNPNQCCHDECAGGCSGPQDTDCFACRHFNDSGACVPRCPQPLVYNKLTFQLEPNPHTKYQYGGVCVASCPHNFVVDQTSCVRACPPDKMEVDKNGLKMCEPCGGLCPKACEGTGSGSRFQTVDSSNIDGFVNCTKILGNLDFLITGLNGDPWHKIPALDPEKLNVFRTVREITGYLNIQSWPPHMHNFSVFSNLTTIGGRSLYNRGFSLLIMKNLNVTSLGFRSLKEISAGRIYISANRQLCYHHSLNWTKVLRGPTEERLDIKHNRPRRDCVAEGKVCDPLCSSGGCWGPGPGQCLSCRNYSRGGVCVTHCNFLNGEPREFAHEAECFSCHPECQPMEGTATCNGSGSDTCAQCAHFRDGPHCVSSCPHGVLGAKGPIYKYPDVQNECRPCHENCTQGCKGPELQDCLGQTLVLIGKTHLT
# Protocol: as §2
# human MDA-MB-453 tumors = tested on: human MDA-MB-453 tumors; set-up: species or system mice; settings: mouse, in vivo
# Protocol: Following imaging, mice were treated with 100 mg/kg of lapatinib every 12 hours for 48 hours following PET imaging. At the end of 48 hours, mice were imaged in the exact same manner as before treatment.
# [4] = tested on: HCC-1954 (low HER3 expressing breast cancer) tumors; set-up: species or system Nu/nu mice; settings: mouse, in vivo
# Protocol: (§3) The peptide was radio labeled with the radiometal ^68Ga eluted from a ^68Ge/^68Ga generator (iThemba, South Africa) in 0.05M HCl. The pH of the elution was adjusted to approximately 4 by 2M=2-[4-(2-hydroxyethyl) piperazin-1-yl]ethanesulfonic acid and 100 ng of peptide reacted with the elution for 10 min at room temperature. Peptide was purified from free ^68Ga by reverse phase C18 cartridge (Waters, Milford, MA) and purity determined by ITLC. The peptide was then prepared in normal saline to a specific activity of approximately 300 MBq/mg for injection into mice. Nu/nu mice bearing either 22RV1 (high HER3 expressing prostate cancer) or HCC-1954 (low HER3 expressing breast cancer) tumors were implanted in the right upper flank of mice and grown to approximately 5-7 mm. Radiolabeled HER3 peptide was injected intravenously and allowed to circulate for 1 h prior to PET imaging. PET images were acquired on an Inveon micro PET/CT (Siemens, Knoxville, TN) for 15 minutes in list mode, followed by CT acquisition. Images were constructed using 3D-MLEM (20 subsets) and corrected for scatter and randoms. The tumor and blood uptake was calculated in a 3D region of interest drawn around the tumor and heart, respectively, using CT guidance. Images were post-processed using VivoQuant (InviCRO, Boston, MA).
# [5] = tested on: 22RV1 (high HER3 expressing prostate cancer) tumors; set-up: species or system Nu/nu mice; settings: mouse, in vivo
# Protocol: as §3
# TNBC cell lines [6] = settings: criterion for cell lines considered sensitive (CAL-148, HCC-70, CAL-51, HCC-1395, HS-578T); cited from earlier work
# TNBC cell lines [7] = settings: criterion for cell lines considered sensitive (HDQ-P1, CAL-51, HCC-70, CAL-148, HCC-1395, HS-578T); cited from earlier work
molecule,measurement,setting,value
C-L-P-T-K-F-R-S-C [HER3P1],cell binding absorbance,"[1]; MDA-MB-453, 250 nM peptide, 1 h 37° C., 405 nm",0.29±0.06
same,binding by fluorescent microscopy,"[1]; fixed MDA-MB-453 cells, 250 nM peptide",high binding
same,binding by fluorescent microscopy,[2],almost no visualization
same,"biodistribution, HER3+ tumors",[3],0.50±0.18 % ID/g
same,"biodistribution, intestines",[3],0.48±0.15 % ID/g
same,"biodistribution, kidneys",[3],10.1±1.67 % ID/g
same,"biodistribution, lungs",[3],0.70±0.14 % ID/g
same,"biodistribution, stomach",[3],0.30±0.07 % ID/g
same,absorbance of binding to EGFR,EGFR,0.21±0.09
same,"selectivity/specificity for HER3 over other proteins (EGFR, HER2, BSA)",HER3 ECD,approximately 4 fold
same,"selectivity/specificity for HER3 over other proteins (EGFR, HER2, BSA)",HER3 ECD; listed as displayed peptide conjugated to biotin,greater than 4 fold
same,SUVmean,human MDA-MB-453 tumors,0.42±0.04
"CC(C)C[C@@H]1NC(=O)[C@@H](NC(=O)CNC(=O)CNC(=O)CNC(=O)CCNC(=S)Nc2ccc(CC3CN(CC(=O)O)CCN(CC(=O)O)CCN3CC(=O)O)cc2)CSSC[C@@H](C(=O)O)NC(=O)[C@H](CO)NC(=O)[C@H](CCCNC(=N)N)NC(=O)[C@H](Cc2ccccc2)NC(=O)[C@H](CCCCN)NC(=O)[C@H]([C@@H](C)O)NC(=O)[C@@H]2CCCN2C1=O (stereo partly drawn) [^68Ga-(NOTA-NCS)-HER3P1, ^68Ga-(NOTA-NCS)-beta A-G-G-G-C-L-P-T-K-F-R-S-C, metal not drawn]",tumor uptake by PET imaging,[4],much lower levels
same,standardized tumor to blood ratios (TBR),[4]; iv,0.69-0.94
same,off-target peptide accumulation,[5],minimal
same,tumor uptake by PET imaging,[5],high
same,standardized tumor to blood ratios (TBR),[5]; iv,1.60-3.32
CC(C)NC[C@@H](C(=O)N1CCN(c2ncnc3c2[C@H](C)C[C@H]3O)CC1)c1ccc(Cl)cc1 [GDC-0068],IC50,TNBC cell lines [6],< 1 µM
CS(=O)(=O)N1CCN(Cc2cc3nc(-c4cccc5[nH]ncc45)nc(N4CCOCC4)c3s2)CC1 [GDC-0941],IC50,TNBC cell lines [7],< 1 µM
